In patent US20120208216A1:

How the values were obtained:
[1] = target: Rhesus-monkey IgG (Rhesus-monkey serum); experiment: SPR (BIAcore T100), mAb captured by anti-mouse Fc, serum 1:100; signal at 80 s
[2] = target: baboon IgG (baboon serum); experiment: as above
[3] = target: chimpanzee immunoglobulin of class G (chimpanzee serum); experiment: as above
[4] = target: cynomolgus IgG (cynomolgus serum); experiment: as above
dog IgG (dog serum) [5] = experiment: as above
[6] = target: human immunoglobulin of class G (human serum); experiment: as above
[7] = target: marmoset IgG (marmoset serum); experiment: as above
[8] = target: antibody against the IL-1R receptor (anti-IL1R antibody); experiment: sandwich ELISA, Bi- and Dig-M-R10Z8E9 as capture and detection; analyte 1.56 ng/ml in cynomolgus serum
[9] = target: antibody against the IL-6 receptor (anti-IL6R antibody); experiment: as above
[10] = target: antibody against the IL13 receptor α1 protein (anti-IL13Rα1 antibody); experiment: as above
[11] = target: antibody against the amyloid β-A4 peptide (anti-Aβ antibody); experiment: as above
[12] = target: antibody against the IL-1R receptor (anti-IL1R antibody); experiment: sandwich ELISA, Bi- and Dig-M-R10Z8E9 as capture and detection; analyte 3.13 ng/ml in cynomolgus serum
[13] = target: antibody against the IL-6 receptor (anti-IL6R antibody); experiment: as above
[14] = target: antibody against the IL13 receptor α1 protein (anti-IL13Rα1 antibody); experiment: as above
[15] = target: antibody against the amyloid β-A4 peptide (anti-Aβ antibody); experiment: as above
[16] = target: antibody against the IL-1R receptor (anti-IL1R antibody); experiment: sandwich ELISA, Bi- and Dig-M-R10Z8E9 as capture and detection; analyte 6.25 ng/ml in cynomolgus serum
[17] = target: antibody against the IL-6 receptor (anti-IL6R antibody); experiment: as above
[18] = target: antibody against the IL13 receptor α1 protein (anti-IL13Rα1 antibody); experiment: as above
[19] = target: antibody against the amyloid β-A4 peptide (anti-Aβ antibody); experiment: as above
[20] = target: antibody against the IL-1R receptor (anti-IL1R antibody); experiment: sandwich ELISA, Bi- and Dig-M-R10Z8E9 as capture and detection; analyte 12.50 ng/ml in cynomolgus serum
[21] = target: antibody against the IL-6 receptor (anti-IL6R antibody); experiment: as above
[22] = target: antibody against the IL13 receptor α1 protein (anti-IL13Rα1 antibody); experiment: as above
[23] = target: antibody against the amyloid β-A4 peptide (anti-Aβ antibody); experiment: as above
[24] = target: antibody against the IL-1R receptor (anti-IL1R antibody); experiment: sandwich ELISA, Bi- and Dig-M-R10Z8E9 as capture and detection; analyte 25.00 ng/ml in cynomolgus serum
[25] = target: antibody against the IL-6 receptor (anti-IL6R antibody); experiment: as above
[26] = target: antibody against the IL13 receptor α1 protein (anti-IL13Rα1 antibody); experiment: as above
[27] = target: antibody against the amyloid β-A4 peptide (anti-Aβ antibody); experiment: as above
[28] = target: antibody against the IL-1R receptor (anti-IL1R antibody); experiment: sandwich ELISA, Bi- and Dig-M-R10Z8E9 as capture and detection; analyte 50.00 ng/ml in cynomolgus serum
[29] = target: antibody against the IL-6 receptor (anti-IL6R antibody); experiment: as above
[30] = target: antibody against the IL13 receptor α1 protein (anti-IL13Rα1 antibody); experiment: as above
[31] = target: antibody against the amyloid β-A4 peptide (anti-Aβ antibody); experiment: as above
[32] = target: chimpanzee immunoglobulin of class G (chimpanzee serum); experiment: SPR (BIAcore T100), mAb captured by anti-mouse Fc, serum 1:100; 1:1 Langmuir, serum IgG assumed 15 mg/ml
dog IgG (dog serum) [33] = experiment: as above
[34] = target: human immunoglobulin of class G (human serum); experiment: as above
[35] = target: marmoset IgG (marmoset serum); experiment: as above
[36] = target: antibody against the IL-1R receptor (anti-IL1R antibody); experiment: sandwich ELISA, Bi- and Dig-M-R10Z8E9 as capture and detection; analyte 100.00 ng/ml in cynomolgus serum
[37] = target: antibody against the IL-6 receptor (anti-IL6R antibody); experiment: as above
[38] = target: antibody against the IL13 receptor α1 protein (anti-IL13Rα1 antibody); experiment: as above
[39] = target: antibody against the amyloid β-A4 peptide (anti-Aβ antibody); experiment: as above
[40] = target: antibody against the IL-1R receptor (anti-IL1R antibody); experiment: sandwich ELISA, Bi- and Dig-M-R10Z8E9 as capture and detection; 0.00 ng/ml analyte in cynomolgus serum (blank)
[41] = target: antibody against the IL-6 receptor (anti-IL6R antibody); experiment: as above
[42] = target: antibody against the IL13 receptor α1 protein (anti-IL13Rα1 antibody); experiment: as above
[43] = target: antibody against the amyloid β-A4 peptide (anti-Aβ antibody); experiment: as above

## MAB<h-Fc gamma>M-R10Z8E9 (antibody)
[1]
  Bound RU: -1.9 RU
[2]
  Bound RU: -1.5 RU
[3]
  Bound RU: 159 RU
[4]
  Bound RU: -1.4 RU
Dog IgG (dog serum) [5]
  Bound RU: 35.5 RU
[6]
  Bound RU: 151 RU
[7]
  Bound RU: 18.9 RU
[8]
  OD: 0.085 OD
[9]
  OD: 0.105 OD
[10]
  OD: 0.119 OD
[11]
  OD: 0.139 OD
[12]
  OD: 0.153 OD
[13]
  OD: 0.19 OD
[14]
  OD: 0.226 OD
[15]
  OD: 0.264 OD
[16]
  OD: 0.276 OD
[17]
  OD: 0.348 OD
[18]
  OD: 0.408 OD
[19]
  OD: 0.482 OD
[20]
  OD: 0.546 OD
[21]
  OD: 0.664 OD
[22]
  OD: 0.772 OD
[23]
  OD: 0.881 OD
[24]
  OD: 0.98 OD
[25]
  OD: 1.08 OD
[26]
  OD: 1.23 OD
[27]
  OD: 1.31 OD
[28]
  OD: 1.52 OD
[29]
  OD: 1.56 OD
[30]
  OD: 1.67 OD
[31]
  OD: 1.71 OD
[32]
  Kd: 0.221 nM
Dog IgG (dog serum) [33]
  Kd: 31.7 nM
[34]
  Kd: 0.177 nM
[35]
  Kd: 204 nM
[36]
  OD: 1.88 OD
[37]
  OD: 1.82 OD
[38]
  OD: 1.97 OD
[39]
  OD: 1.93 OD
[40]
  OD: 0.024 OD
[41]
  OD: 0.024 OD
[42]
  OD: 0.022 OD
[43]
  OD: 0.023 OD
